Read-outs that look alike come from different tables or passages of the source.

Assay in all cases: far-Western, overlay or dot blot
Assay [1] has as its target T1, SynPnp, recombinant Synechocystis PNPase (Synechocystis PCC6803, UniProt P72659 1-718).
T1 sequence (looked up): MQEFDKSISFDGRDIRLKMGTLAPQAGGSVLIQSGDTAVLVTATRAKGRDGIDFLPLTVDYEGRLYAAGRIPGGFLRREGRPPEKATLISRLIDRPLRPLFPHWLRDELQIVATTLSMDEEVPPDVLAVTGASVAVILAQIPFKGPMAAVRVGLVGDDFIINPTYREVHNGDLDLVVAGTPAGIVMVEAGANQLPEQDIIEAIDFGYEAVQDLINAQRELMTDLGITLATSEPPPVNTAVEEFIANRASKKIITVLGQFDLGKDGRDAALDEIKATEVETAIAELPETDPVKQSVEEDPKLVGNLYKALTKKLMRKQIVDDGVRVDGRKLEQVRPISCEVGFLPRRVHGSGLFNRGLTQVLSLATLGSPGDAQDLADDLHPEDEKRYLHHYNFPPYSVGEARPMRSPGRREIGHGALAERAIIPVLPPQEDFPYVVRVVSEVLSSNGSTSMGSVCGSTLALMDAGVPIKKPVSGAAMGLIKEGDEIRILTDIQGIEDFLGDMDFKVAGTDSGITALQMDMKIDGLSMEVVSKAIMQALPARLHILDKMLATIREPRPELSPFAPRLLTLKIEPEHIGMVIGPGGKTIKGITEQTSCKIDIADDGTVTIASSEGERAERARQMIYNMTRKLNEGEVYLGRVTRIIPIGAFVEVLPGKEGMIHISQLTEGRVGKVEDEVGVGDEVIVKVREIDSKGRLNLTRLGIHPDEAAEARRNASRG

Assay [2] concerns the target T1, SynPnp, recombinant Synechocystis PNPase. The source holds these as a separate data set.
For assay [3], the target named is T2, AnaPnp, recombinant Anabaena PNPase (Anabaena PCC7120, UniProt Q8YP11 1-718).
T2 sequence (looked up): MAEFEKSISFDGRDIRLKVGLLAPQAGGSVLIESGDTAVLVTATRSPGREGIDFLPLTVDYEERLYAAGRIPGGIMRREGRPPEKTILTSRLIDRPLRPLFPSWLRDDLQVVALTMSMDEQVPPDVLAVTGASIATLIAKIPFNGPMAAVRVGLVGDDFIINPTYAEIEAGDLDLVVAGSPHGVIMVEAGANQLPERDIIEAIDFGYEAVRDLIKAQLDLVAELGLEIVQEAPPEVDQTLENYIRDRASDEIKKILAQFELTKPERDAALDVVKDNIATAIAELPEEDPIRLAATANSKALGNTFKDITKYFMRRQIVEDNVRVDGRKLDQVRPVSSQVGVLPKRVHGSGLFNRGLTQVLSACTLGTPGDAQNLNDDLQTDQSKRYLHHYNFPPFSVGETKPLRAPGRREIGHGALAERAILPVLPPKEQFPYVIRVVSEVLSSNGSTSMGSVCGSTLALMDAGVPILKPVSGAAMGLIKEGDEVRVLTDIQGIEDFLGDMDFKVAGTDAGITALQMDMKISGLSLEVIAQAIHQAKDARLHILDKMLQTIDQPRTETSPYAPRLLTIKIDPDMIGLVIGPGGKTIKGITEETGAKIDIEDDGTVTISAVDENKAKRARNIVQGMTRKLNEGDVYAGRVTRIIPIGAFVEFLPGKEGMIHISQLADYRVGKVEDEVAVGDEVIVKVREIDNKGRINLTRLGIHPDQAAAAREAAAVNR

B1: GFP-C4b (GFP fused at its C-terminus to the C4 nonapeptide) (peptide)
chain: RRRRRRSSA
In the case of B1, the binding result in assay [1] is reported as “binds”.

B2: synthetic nonapeptide of C4 (peptide)
peptide: RRRRRRSSA
Take B2: the binding result in assay [2] is “binds”.

B3: GFP-C4a (GFP fused at its C-terminus to C4 with four flanking residues at both ends) (peptide)
chain: STANRRRRRRSSASDSD
Regarding B3, the binding result in assay [3] was “binds”.

For the origin of these results see publication PMC3964918 (RNA, 2014).
